Source: patent publication CN116769729A (UNIV SCIENCE & TECHNOLOGY CHINA, dated 2023)

How the values were obtained:
[1] = target: T1, 小鼠CD150胞外段蛋白 (CD150m, hFc removed by TEV cleavage) (mouse, UniProt Q9QUM4 25-242); test: indirect ELISA, CD150 protein coated at 0.25 μg/ml, HRP anti-rat IgG detection
T1 construct: The monomeric protein was used; In the BLI assay the protein was biotinylated (biotin-CD150); also called CD150蛋白; biotin-CD150
T1 sequence: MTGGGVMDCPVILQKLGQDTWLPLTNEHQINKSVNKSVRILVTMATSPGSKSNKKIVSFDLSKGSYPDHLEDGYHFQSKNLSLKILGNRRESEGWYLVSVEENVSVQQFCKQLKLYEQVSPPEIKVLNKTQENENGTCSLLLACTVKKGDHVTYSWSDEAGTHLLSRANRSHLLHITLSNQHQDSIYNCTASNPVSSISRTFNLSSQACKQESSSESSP

[2] = target: T2, 小鼠CD150 on mouse spleen cells (mouse, UniProt Q9QUM4 25-343); test: flow cytometry on mouse spleen cells
T2 construct: This is endogenous CD150 on mouse splenocytes in the flow cytometry assay
T2 sequence: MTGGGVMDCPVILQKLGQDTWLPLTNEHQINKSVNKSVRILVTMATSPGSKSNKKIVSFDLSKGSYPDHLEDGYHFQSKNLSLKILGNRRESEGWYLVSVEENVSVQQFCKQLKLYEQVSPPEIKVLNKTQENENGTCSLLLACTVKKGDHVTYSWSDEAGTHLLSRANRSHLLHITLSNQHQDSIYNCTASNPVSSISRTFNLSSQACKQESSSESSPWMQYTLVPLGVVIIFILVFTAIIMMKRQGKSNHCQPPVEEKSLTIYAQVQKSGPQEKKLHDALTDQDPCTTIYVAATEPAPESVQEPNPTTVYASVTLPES

EC50 [1]: 1.13 µg/mL
binding result [2]: binds
B1: 抗CD150单克隆抗体 (produced by rat hybridoma mCD150-mAb-1, CGMCC No.45539) (antibody, V domains shown)
VH: QIQLVQSGPELKKPGESVKISCKASGYTFTDYAMNWVKQAPGNGLKWMGYINTQTGKPTYADDFKQRFVFSLETSASTAYLQINNLNIEDTATYFCTRYNSGNWFAYWGQGTLVTVSS
VL: DIQMTQTPSSMPASLGERVTISCRAGQGISNYLNWYQQKPDGAIKPLIYYTSNLQSGVPSRFSGSGSGTDYSLTISSLEPEDFAMYYCQQYDSSPYTFGAGTKLELK
notes: also called CD150的单抗; 抗CD150抗体
